The source of these data is paper PMC11381335, “Unraveling the structure and function of a novel SegC protein interacting with the SegAB chromosome segregation complex in Archaea” (Nucleic Acids Research, 2024).

Assay [1] addresses SegC labeled with Alexa488 green-fluorescent dye (Saccharolobus solfataricus). The experiment in a line: fluorescence polarisation; 10 nM Alexa488-labeled SegC; SegA or SegB in 2-fold serial dilution from 10 uM; room temperature, 30 min; 20 mM HEPES-NaOH pH 7.3, 100 mM NaCl, 2 mM MgCl2; concentration of protein that binds 50% of the labeled SegC.
Assay [2] concerns the target T1, SegC (SSO0033) (Saccharolobus solfataricus, UniProt Q981B4).
T1 construct: full length 165 residues, C-terminal His6 (pET21b), E. coli BL21(DE3)
Briefly: malachite green phosphate release. The class given is biochemical. To be noted: 10 uM protein, 1 mM NTP, 2 mM MgCl2, 100 mM NaCl, pH 7.5, 37 °C, 1 h; no DNA.

The target of assay [3] is SegC (SSO0033) (Saccharolobus solfataricus). The experiment in a line: crystal structure; SegC crystals grown in 100 mM Tris-HCl pH 8.5, 300 mM potassium thiocyanate, 20°C; 2.8 Å; also soaked with 20 mM ATP (SegC-ADP).
Assay [4] addresses T1, SegC (SSO0033). The experiment in a line: X-ray crystal structure of ATP-soaked SegC crystals. The class given is binding. Particulars: apo crystals soaked within one minute in 20 mM ATP, 2 mM MgCl2, pH 7.5; ADP modelled at the interface of two dimers (Tyr61, Arg73).

SegC labeled with Alexa488 green-fluorescent dye (Saccharolobus solfataricus), sequence (Q981B4 entry or part of it): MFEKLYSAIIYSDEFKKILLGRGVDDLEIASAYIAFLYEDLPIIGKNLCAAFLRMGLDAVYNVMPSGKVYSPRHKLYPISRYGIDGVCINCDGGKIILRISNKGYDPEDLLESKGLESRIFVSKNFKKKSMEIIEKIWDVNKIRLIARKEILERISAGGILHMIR
T1 sequence (Q981B4 entry or part of it): as above

Broadly, the Kd is a measure of binding affinity in units of concentration. Higher therefore signals weaker binding. Compound SegB (natural protein) showed a dissociation constant (Kd) in assay [1] of 1400 nM. For `Nc1ccn([C@@H]2O[C@H](COP(=O)(O)OP(=O)(O)OP(=O)(O)O)[C@@H](O)[C@H]2O)c(=O)n1` [CTP], the “malachite green phosphate release” value at SegC (SSO0033) [2] was “SegC exhibited catalytic activity against all of the tested NTPs with no apparent preference”.

One may read the stoichiometry N as a count of units in the complex or per binding partner. With SegC (SSO0033) (natural protein), the stoichiometry N in assay [3] was determined as 4.

`Nc1ncnc2c1ncn2[C@@H]1O[C@H](COP(=O)(O)OP(=O)(O)O)[C@@H](O)[C@H]1O` [ADP]: the “X-ray crystal structure of ATP-soaked SegC crystals” value on SegC (SSO0033) [4] is “In this SegC-ADP complex structure, two residues (Tyr61 and Arg73) were found to interact”.

On to SegA (natural protein), for which the dissociation constant (Kd) in assay [1] came to 1800 nM.
